Test results from IntAct's records for PubMed 29892012.

B1: Kinetochore protein NDC80 homolog (Homo sapiens), O14777 (parent)
chain: MKRSSVSSGGAGRLSMQELRSQDVNKQGLYTPQTKEKPTFGKLSINKPTSERKVSLFGKRTSGHGSRNSQLGIFSSSEKIKDPRPLNDKAFIQQCIRQLCEFLTENGYAHNVSMKSLQAPSVKDFLKIFTFLYGFLCPSYELPDTKFEEEVPRIFKDLGYPFALSKSSMYTVGAPHTWPHIVAALVWLIDCIKIHTAMKESSPLFDDGQPWGEETEDGIMHNKLFLDYTIKCYESFMSGADSFDEMNAELQSKLKDLFNVDAFKLESLEAKNRALNEQIARLEQEREKEPNRLESLRKLKASLQGDVQKYQAYMSNLESHSAILDQKLNGLNEEIARVELECETIKQENTRLQNIIDNQKYSVADIERINHERNELQQTINKLTKDLEAEQQKLWNEELKYARGKEAIETQLAEYHKLARKLKLIPKGAENSKGYDFEIKFNPEAGANCLVKYRAQVYVPLKELLNETEEEINKALNKKMGLEDTLEQLNAMITESKRSVRTLKEEVQKLDDLYQQKIKEAEEEDEKCASELESLEKHKHLLESTVNQGLSEAMNELDAVQREYQLVVQTTTEERRKVGNNLQRLLEMVATHVGSVEKHLEEQIAKVDREYEECMSEDLSENIKEIRDKYEKKATLIKSSEE
B2: Pleckstrin homology domain-containing family G member 2 (Homo sapiens), Q9H7P9 (parent)
chain: MPEGAQGLSLSKPSPSLGCGRRGEVCDCGTVCETRTAPAAPTMASPRGSGSSTSLSTVGSEGDPAPGPTPACSASRPEPLPGPPIRLHLSPVGIPGSARPSRLERVAREIVETERAYVRDLRSIVEDYLGPLLDGGVLGLSVEQVGTLFANIEDIYEFSSELLEDLENSSSAGGIAECFVQRSEDFDIYTLYCMNYPSSLALLRELSLSPPAALWLQERQAQLRHSLPLQSFLLKPVQRILKYHLLLQELGKHWAEGPGTGGREMVEEAIVSMTAVAWYINDMKRKQEHAARLQEVQRRLGGWTGPELSAFGELVLEGAFRGGGGGGPRLRGGERLLFLFSRMLLVAKRRGLEYTYKGHIFCCNLSVSESPRDPLGFKVSDLTIPKHRHLLQAKNQEEKRLWIHCLQRLFFENHPASIPAKAKQVLLENSLHCAPKSKPVLEPLTPPLGSPRPRDARSFTPGRRNTAPSPGPSVIRRGRRQSEPVKDPYVMFPQNAKPGFKHAGSEGELYPPESQPPVSGSAPPEDLEDAGPPTLDPSGTSITEEILELLNQRGLRDPGPSTHDIPKFPGDSQVPGDSETLTFQALPSRDSSEEEEEEEEGLEMDERGPSPLHVLEGLESSIAAEMPSIPCLTKIPDVPNLPEIPSRCEIPEGSRLPSLSDISDVFEMPCLPAIPSVPNTPSLSSTPTLSCDSWLQGPLQEPAEAPATRRELFSGSNPGKLGEPPSGGKAGPEEDEEGVSFTDFQPQDVTQHQGFPDELAFRSCSEIRSAWQALEQGQLARPGFPEPLLILEDSDLGGDSGSGKAGAPSSERTASRVRELARLYSERIQQMQRAETRASANAPRRRPRVLAQPQPSPCLPQEQAEPGLLPAFGHVLVCELAFPLTCAQESVPLGPAVWVQAAIPLSKQGGSPDGQGLHVSNLPKQDLPGIHVSAATLLPEQGGSRHVQAPAATPLPKQEGPLHLQVPALTTFSDQGHPEIQVPATTPLPEHRSHMVIPAPSTAFCPEQGHCADIHVPTTPALPKEICSDFTVSVTTPVPKQEGHLDSESPTNIPLTKQGGSRDVQGPDPVCSQPIQPLSWHGSSLDPQGPGDTLPPLPCHLPDLQIPGTSPLPAHGSHLDHRIPANAPLSLSQELPDTQVPATTPLPLPQVLTDIWVQALPTSPKQGSLPDIQGPAAAPPLPEPSLTDTQVQKLTPSLEQKSLIDAHVPAATPLPERGGSLDIQGLSPTPVQTTMVLSKPGGSLASHVARLESSDLTPPHSPPPSSRQLLGPNAAALSRYLAASYISQSLARRQGPGGGAPAASRGSWSSAPTSRASSPPPQPQPPPPPARRLSYATTVNIHVGGGGRLRPAKAQVRLNHPALLASTQESMGLHRAQGAPDAPFHM
B3: Keratin, type I cuticular Ha8 (Homo sapiens), O76015 (parent)
chain: MTSSYSSSSCPLGCTMAPGARNVSVSPIDIGCQPGAEANIAPMCLLANVAHANRVRVGSTPLGRPSLCLPPTCHTACPLPGTCHIPGNIGICGAYGENTLNGHEKETMQFLNDRLANYLEKVRQLEQENAELEATLLERSKCHESTVCPDYQSYFHTIEELQQKILCSKAENARLIVQIDNAKLAADDFRIKLESERSLRQLVEADKCGTQKLLDDATLAKADLEAQQESLKEEQLSLKSNHEQEVKILRSQLGEKLRIELDIEPTIDLNRVLGEMRAQYEAMLETNRQDVEQWFQAQSEGISLQDMSCSEELQCCQSEILELRCTVNALEVERQAQHTLKDCLQNSLCEAEDRFGTELAQMQSLISNVEEQLSEIRADLERQNQEYQVLLDVKTRLENEIATYRNLLESEDCKLPCNPCSTSPSCVTAPCAPRPSCGPCTTCGPTCGASTTGSRF
partner: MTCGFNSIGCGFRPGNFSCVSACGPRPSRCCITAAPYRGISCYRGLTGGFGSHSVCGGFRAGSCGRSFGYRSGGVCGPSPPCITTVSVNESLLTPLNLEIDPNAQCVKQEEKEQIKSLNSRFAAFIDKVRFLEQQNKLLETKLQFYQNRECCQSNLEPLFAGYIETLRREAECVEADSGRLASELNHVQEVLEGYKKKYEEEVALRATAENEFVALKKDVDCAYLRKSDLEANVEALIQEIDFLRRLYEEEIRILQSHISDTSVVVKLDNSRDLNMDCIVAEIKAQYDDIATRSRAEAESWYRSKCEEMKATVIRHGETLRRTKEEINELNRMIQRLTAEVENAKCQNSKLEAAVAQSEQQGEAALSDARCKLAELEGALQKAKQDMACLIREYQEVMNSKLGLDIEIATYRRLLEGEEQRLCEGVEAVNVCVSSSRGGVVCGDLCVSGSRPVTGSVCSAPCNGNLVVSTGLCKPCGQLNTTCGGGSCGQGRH
B4: Vacuolar protein-sorting-associated protein 25 (Homo sapiens), Q9BRG1 (parent)
chain: MAMSFEWPWQYRFPPFFTLQPNVDTRQKQLAAWCSLVLSFCRLHKQSSMTVMEAQESPLFNNVKLQRKLPVESIQIVLEELRKKGNLEWLDKSKSSFLIMWRRPEEWGKLIYQWVSRSGQNNSVFTLYELTNGEDTEDEEFHGLDEATLLRALQALQQEHKAEIITVSDGRGVKFF
partner: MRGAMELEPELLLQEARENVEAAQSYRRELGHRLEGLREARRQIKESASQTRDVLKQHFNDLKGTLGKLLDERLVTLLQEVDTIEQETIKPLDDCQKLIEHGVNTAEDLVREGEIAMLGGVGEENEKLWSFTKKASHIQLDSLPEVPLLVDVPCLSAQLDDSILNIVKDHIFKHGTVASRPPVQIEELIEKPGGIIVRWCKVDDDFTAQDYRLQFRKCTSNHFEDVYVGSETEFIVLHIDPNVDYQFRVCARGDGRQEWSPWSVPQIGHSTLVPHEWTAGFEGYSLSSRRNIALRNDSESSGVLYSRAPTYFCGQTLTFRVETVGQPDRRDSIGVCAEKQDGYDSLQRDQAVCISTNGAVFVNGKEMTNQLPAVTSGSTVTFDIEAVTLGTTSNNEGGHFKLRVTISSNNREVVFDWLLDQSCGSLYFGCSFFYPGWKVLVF

Variants of: B1
Conditions: with tnip1_human TNIP1, Q15025
Chain of tnip1_human TNIP1, Q15025 (Q15025 whole entry): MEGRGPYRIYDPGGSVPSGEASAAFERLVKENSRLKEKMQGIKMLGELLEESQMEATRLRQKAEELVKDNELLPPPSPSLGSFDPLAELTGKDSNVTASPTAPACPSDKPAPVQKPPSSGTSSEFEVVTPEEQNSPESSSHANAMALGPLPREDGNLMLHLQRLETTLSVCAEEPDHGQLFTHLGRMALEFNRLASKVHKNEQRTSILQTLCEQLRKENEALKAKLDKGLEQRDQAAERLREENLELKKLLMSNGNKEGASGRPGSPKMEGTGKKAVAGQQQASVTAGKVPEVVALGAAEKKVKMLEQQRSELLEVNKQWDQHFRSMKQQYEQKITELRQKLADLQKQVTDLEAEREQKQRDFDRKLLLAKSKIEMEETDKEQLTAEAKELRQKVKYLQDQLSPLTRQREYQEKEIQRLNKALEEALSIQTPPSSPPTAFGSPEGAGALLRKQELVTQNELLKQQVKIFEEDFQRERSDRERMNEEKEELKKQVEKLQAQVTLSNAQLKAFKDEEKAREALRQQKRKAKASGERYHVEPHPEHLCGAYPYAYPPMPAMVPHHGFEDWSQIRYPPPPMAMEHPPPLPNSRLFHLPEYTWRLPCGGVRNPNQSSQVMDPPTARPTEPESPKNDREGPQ

Row | Variant | effect of a mutation on the interaction
1 | K288E | with no effect

Variants of: B1
Conditions: with amol2_human AMOTL2, Q9Y2J4
Chain of amol2_human AMOTL2, Q9Y2J4 (Q9Y2J4 whole entry): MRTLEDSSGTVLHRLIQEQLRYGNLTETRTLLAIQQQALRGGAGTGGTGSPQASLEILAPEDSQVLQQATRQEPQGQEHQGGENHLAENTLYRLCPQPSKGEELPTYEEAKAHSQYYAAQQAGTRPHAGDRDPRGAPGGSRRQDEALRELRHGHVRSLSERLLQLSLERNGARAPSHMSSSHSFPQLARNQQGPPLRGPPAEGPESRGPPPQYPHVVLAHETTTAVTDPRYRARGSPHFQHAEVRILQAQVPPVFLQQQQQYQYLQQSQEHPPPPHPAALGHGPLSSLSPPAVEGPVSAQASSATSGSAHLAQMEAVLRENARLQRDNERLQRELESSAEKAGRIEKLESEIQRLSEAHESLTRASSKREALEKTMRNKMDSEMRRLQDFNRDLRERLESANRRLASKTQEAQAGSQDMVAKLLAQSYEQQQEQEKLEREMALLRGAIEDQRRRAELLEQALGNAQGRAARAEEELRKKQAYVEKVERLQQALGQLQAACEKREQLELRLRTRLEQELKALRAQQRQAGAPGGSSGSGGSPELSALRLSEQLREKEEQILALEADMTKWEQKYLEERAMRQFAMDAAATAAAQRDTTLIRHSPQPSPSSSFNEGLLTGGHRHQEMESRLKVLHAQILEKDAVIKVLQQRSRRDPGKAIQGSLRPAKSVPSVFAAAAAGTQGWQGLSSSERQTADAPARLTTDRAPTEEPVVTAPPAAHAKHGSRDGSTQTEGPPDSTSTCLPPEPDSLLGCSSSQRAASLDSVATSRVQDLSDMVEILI

Row | Variant | effect of a mutation on the interaction
2 | K288E | with no effect

Variants of: B1
Conditions: with atf4_human ATF4, P18848
Chain of atf4_human ATF4, P18848 (P18848 whole entry): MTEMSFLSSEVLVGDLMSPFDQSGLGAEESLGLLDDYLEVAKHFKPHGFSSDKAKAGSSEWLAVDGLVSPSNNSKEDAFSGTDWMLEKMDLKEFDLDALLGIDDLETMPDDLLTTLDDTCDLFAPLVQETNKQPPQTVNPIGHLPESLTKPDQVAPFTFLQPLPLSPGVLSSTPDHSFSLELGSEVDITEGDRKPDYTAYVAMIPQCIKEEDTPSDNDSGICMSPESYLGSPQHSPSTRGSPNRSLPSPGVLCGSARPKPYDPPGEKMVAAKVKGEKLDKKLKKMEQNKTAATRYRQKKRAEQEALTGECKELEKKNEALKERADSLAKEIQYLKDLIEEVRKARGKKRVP

Row | Variant | effect of a mutation on the interaction
3 | K288E | with no effect

Variants of: B1
Conditions: with txlna_human TXLNA

Row | Variant | effect of a mutation on the interaction
4 | K288E | with no effect

Variants of: B2
Conditions: with actn3_human ACTN3, Q08043
Chain of actn3_human ACTN3, Q08043 (Q08043 whole entry): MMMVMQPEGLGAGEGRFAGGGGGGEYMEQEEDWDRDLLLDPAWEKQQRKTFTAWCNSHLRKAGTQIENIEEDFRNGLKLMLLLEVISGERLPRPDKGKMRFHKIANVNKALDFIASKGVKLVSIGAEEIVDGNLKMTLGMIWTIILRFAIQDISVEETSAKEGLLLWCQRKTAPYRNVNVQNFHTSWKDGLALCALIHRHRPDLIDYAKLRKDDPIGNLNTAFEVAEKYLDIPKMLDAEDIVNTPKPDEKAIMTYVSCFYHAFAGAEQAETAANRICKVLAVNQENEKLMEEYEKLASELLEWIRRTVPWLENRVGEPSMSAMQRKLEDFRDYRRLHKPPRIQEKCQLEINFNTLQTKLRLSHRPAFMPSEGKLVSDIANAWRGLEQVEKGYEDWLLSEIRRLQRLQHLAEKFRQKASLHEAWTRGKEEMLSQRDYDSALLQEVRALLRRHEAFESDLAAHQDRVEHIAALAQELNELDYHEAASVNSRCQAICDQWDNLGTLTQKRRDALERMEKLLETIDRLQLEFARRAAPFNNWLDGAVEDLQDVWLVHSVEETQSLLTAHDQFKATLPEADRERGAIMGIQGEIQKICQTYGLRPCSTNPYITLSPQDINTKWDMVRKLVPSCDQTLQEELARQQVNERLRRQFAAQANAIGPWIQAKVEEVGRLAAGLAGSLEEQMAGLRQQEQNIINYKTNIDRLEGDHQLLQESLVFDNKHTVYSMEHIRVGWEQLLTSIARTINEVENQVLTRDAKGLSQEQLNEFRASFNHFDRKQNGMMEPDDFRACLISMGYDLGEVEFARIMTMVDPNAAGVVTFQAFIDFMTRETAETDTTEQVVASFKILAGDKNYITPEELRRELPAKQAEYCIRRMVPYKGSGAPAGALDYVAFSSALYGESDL

Row | Variant | effect of a mutation on the interaction
5 | V1248I | with no effect

Variants of: B3
Conditions: with krt83_human KRT83, P78385

Row | Variant | effect of a mutation on the interaction
6 | D306A | with no effect

Variants of: B3
Conditions: with krt83_human KRT83, P78385
Remark: another data set of the same source

Row | Variant | effect of a mutation on the interaction
7 | N270K | with no effect

Variants of: B4
Conditions: with crlf3_human CRLF3, Q8IUI8

Row | Variant | effect of a mutation on the interaction
8 | P58Q | with no effect
